T1: CD79a (human (endogenous in Raji), UniProt P11912 33-226)
T1 construct: CD79a (Igα), signalling subunit of the B cell receptor, human, endogenous in the Raji B lymphoblastoid cell line; the text prints P11912; also called Igα; Ig-alpha; source: endogenous, Raji cells, membrane fraction solubilised in Triton X-100 or DOC lysis buffer
T1 sequence (looked up): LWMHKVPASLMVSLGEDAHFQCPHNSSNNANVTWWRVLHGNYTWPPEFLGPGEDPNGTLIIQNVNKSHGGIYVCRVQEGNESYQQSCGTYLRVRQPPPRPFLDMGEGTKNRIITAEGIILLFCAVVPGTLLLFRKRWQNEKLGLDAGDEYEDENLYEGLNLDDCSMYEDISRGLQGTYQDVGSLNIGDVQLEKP


Key:
[1] = target: CD79a (human (endogenous in Raji)) (UniProt P11912); assay: co-IP; antibody to the bait (anti-CD79a, anti-CD79b or anti-IgM) with Protein G agarose beads; Raji membrane fraction solubilised in 1% Triton X-100 lysis buffer in PBS; overnight at 4 °C; bead eluate read by Western blot, band intensities normalised to protein load
CD79a = target: T1, CD79a; assay: as above; settings: partners not purified

| Molecule | fold enrichment in the bead eluate over input (band intensity normalised to protein load) [1] | fold enrichment in the bead eluate over input (band intensity normalised to protein load) (CD79a) |
| --- | --- | --- |
| membrane immunoglobulin M (mIgM) of Raji cells (complex) | 30 fold | – |
| CD79b (natural protein, human (endogenous in Raji), UniProt P40259 29-229, looked up, CD79b (Igβ), signalling subunit of the B cell receptor, human, endogenous in the Raji B lymphoblastoid cell line; also called Igβ; Ig-beta; source: endogenous, Raji cells, membrane fraction solubilised in Triton X-100 or DOC lysis buffer) ARSEDRYRNPKGSACSRIWQSPRFIARKRGFTVKMHCYMNSASGNVSWLWKQEMDENPQQLKLEKGRMEESQNESLATLTIQGIRFEDNGIYFCQQKCNNTSEVYQGCGTELRVMGFSTLAQLKQRNTLKDGIIMIQTLLIILFIIVPIFLLLDKDDSKAGMEEDHTYEGLDIDQTATYEDIVTLRTGEVKWSVGEHPGQE | – | ~12 fold |
